Source: paper PMC6165294, “The Effect of Ca^2+, Lobe-Specificity, and CaMKII on CaM Binding to NaV1.1” (International Journal of Molecular Sciences, 2018)
Ends that are not written are not given here.

Molecular target: T1, calmodulin (CaM), human, wild type (human, UniProt P0DP23 1-149)
T1 construct: human calmodulin, subcloned from HEK293 cells; Vector pGEX-6P-1; also called wt CaM; apoCaM; source: E. coli BL21 (DE3), GST fusion purified on Glutathione Sepharose 4B; GST cleaved with PreScission Protease
Experiment: pull-down; GST-fusion mutated IQ (T1909A, S1918A, T1934A), treated with CaMKII and CIP, incubated with a fixed concentration of CaM (1.4 uM); [Ca2+] ≈ free; Coomassie stain
Details: both partners purified

B1: GST-fusion NaV1.1 IQ domain, potential CaMKII phosphorylation sites mutant (T1909A + S1918A + T1934A) (domain or fragment)
chain: ALKRKQEEVAAVIIQRAYRRHLLKRAVK
modifications: not fully specified (N-terminus); also: GST fusion protein
notes: IQ domain of human NaV1.1, amino acids 1909-1936, with T1909A, S1918A and T1934A; the treated samples are kept as one molecule; also called mutated NaV1.1 IQ; source: E. coli BL21 (DE3), GST fusion purified on Glutathione Sepharose 4B beads
binding result: binds
